The source of these data is US20220112276A1 (Janssen / Centocor, published 2022).

B1: 01C02R3 His-tagged VHH (VHH)
VHH: QVQLVESGGGLVQAGGSLRLSCAASGLSFSSYTMGWFRQVPGKERELISAIHWSGGPTFYSNSVKGRFTISRDNAKDTVYLQMNSLKPEDTAVYYCTAEPVGSMISPDWTYWGQGTLVTVSS
B2: 01E05R2 His-tagged VHH (VHH)
VHH: QVQLVESGGGLVQAGGSLRLSCAASGRAFSSGRMGWFRQAPGKEREFVAAISWSGHTTYKYYADSVKGRFTISRENAKNTVSLQMNSLKPEDTAVYYCAARQSLVAGGDPRGQSEYDYWGQGTLVTVSS
B3: 01E04R3LS His-tagged VHH (VHH)
VHH: EVQLVESGGGLVQAGDSLRLSCAASGRTFTTYVMGWFRQAPGKDREFVATITWSGSTNYKYYADPVKGRFTISRDNAKNTVYLQMNSLKPEDTAVYYCTSSTVVTDPRKLNEYAYWGQGTLVTVSS
B4: 01E02R3LS His-tagged VHH (VHH)
VHH: EVQLVESGGGLVETGGSLRLSCAASGRTESTYTMAWFRQAPGKERERVATISFSGSTTTYLASVQGRFTISRDGAKNTIFLQMNGLKPEDTAVYYCALDTRRRVGSSPRFYDYWGQGTLVTVSS
B5: 01D09R3 His-tagged VHH (VHH)
VHH: QVQLVESGGGLVQAGGSLRLSCAASGRTFSVYAMGWFRQAPGKERQFVAAITWSGGSTSYADSVKGRFTISRDNAKNTVYLQMNILKPEDTAVYYCAAATNPYFSDYYPDLKYEFDYWGQGTLVTVSS
B6: 01D01R3 His-tagged VHH (VHH)
VHH: EVQLVESGGGLVQAGGSLRLSCAASGRTFSVYGMGWFRQAPGQERAFVAAISWSDGSTYYADSVKGRFTISRDNAKNTMYLQMNSLKPEDTAVYFCAADLTGWGLDADVSEYDYWGQGTQVTVSS
B7: 02B11R3 His-tagged VHH (VHH)
VHH: EVQLVESGGGLVQAGGSLRLSCAASGRTFSPYGMGWFRQTPGKERAFVAAVDWNDGSTYYSDSVKGRFTISRDNAKNTVYLQMNSLKSEDTAVYYCAADLTGWGLDADVSEYDYWGQGTLVTVSS
B8: 01G04R3 His-tagged VHH (VHH)
VHH: B6 VHH with E1Q
B9: 01E03R2 His-tagged VHH (VHH)
VHH: B6 VHH with Q120L
B10: 01E01R3LS His-tagged VHH (VHH)
VHH: QVQLVESGGGLVQAGGSLRLSCAASGRSFSSYNMGWFRQAPGKERDLVAVVTWSGGGTSYADSVKGRFTIARDNANARLYLEMTSLKPEDTAIYYCAATQDWYGGTRAFRAASFHSWGQGTQVTVSS
B11: 01H03R2L His-tagged VHH (VHH)
VHH: B10 VHH with Q1E, Q13R, A71S, R110H, Q122L
B12: 01C03R3LS His-tagged VHH (VHH)
VHH: EVQLVESGGGLVQPGGSLRLSCVASGLPGSSSRMAWFAQAPGKEREFVAAIAWRGRTSYKYYSDSVKGRFTVSGDNAKRTLDLQMKDLNPEDTALYFCAAHPNDDGDPRISGNYQYWGQGTQVTVSS
B13: 01G07R2L His-tagged VHH (VHH)
VHH: B12 VHH with E1Q, G29F, A52G, S63A, R79K, N89K
B14: 01D04R3LS His-tagged VHH (VHH)
VHH: EVQLVESGGGLVQAGGSLRLSCAASGRTFRSYAMGWFRQAPGKEREFVADISWRGGRLYYADSVKGRFTISRDNAKNTVYLQMNSLKPEDTAVYYCAATGDQPAFTTAQGMGAMLEYDYWGQGTLVTVSS
B15: 01C12R2 His-tagged VHH (VHH)
VHH: EVQLVESGGGLVQAGGSLRLSCAASGRTFGSYSMGWFRQAPGKEREFVGAISWSGSSTYKYYEDSVKGRFTISRDNAKNTVPLQMNSLKPEDTGVYFCGGTMERRDPRRTSAYDYWGQGTLVTVSS
B16: 01C03R3 His-tagged VHH (VHH)
VHH: QVQLVESGGGLVQAGGSLRLSCAASGRTFSSYAMGWFRQAPGKEREFVAAIHWNGASTYRYSADSVKGRFTISRDNAKNTVYLQMNSLKPEDTAAYYCAASPPPTVGDVRDPANYDSWGQGTLVTVSS
B17: 01F03R2LS His-tagged VHH (VHH)
VHH: EVQLVESGGGLVQAGDSLRLSCAASGRTGSSGAMGWFRQGPGKEREFVAALMWRNTVTYKYYEDSVKGRFTISRDNAKNTAYLQMNSLKPEDTAVYYCAADPDTYGDPRNSGAYDYWGQGTLVTVSS
B18: 01C02R2 His-tagged VHH (VHH)
VHH: EVQLVESGGGLVQAGGSLRLSCAASGRSYAMGWFRQAPGKEREFAAAISWSGSRTYYADAVKGRFTISRDNAKNTVYLQMNSLKPEDTAVYYCAADPDGTVVASSGWTNSYEYGYWGQGTLVTVSS
B19: 01D02R3LS His-tagged VHH (VHH)
VHH: QVQLVESGGGLVQAGDSLTLSCAASGRSVGFDTYGMAWFRQAPGKEREFVASIAYNGETTSYADSVQGRFTVTRENAKNTIALRMNGLKPDDTAVYYCAAAQYYLTGTSFPAKFWGQGTLVTVSS
B20: 01F04R2LS His-tagged VHH (VHH)
VHH: EVQLVESGGGLVQTGGSLRLSCAASGRTFSSYAMGWFRQAPGKEPERDFVAALRWSNDRTYYKYYADSVKGRFTISRDNAKNTVYLQMNTLKPEDTAVYYCAGGNYFSDPRVDKEYNYWGQGTQVTVSS
B21: 01C03R2L His-tagged VHH (VHH)
VHH: EVQLVESGGGLVQAGGSLRLSCAASGRTLRSYIVGWFRQAPGKEREFVAAVTWSDGRRVTADPVKGRFTISRDNAKNTVYLQMDSLKPEDAAVYYCAVSHGGAYVESRAYEYWGQGTQVTVSS
B22: 01A04R3LS His-tagged VHH (VHH)
VHH: QVQLVESGGGSVQPGGSLRLSCAASGIDVSISTIMWYRQPPGRQRELVADVIPSGRSTTYTESVKGRFTVTRDNAKNTVYLQMSGLKPEDTAVYYCNAFVRRENYWGQGTQVTVSS
B23: 01E10R3 His-tagged VHH (VHH)
VHH: QVQLVESGGGLVQSGGSLRLSCAASGRTFSDYAMGWFRQAPGKERELVAAITWNGGSTYYADSVKGRFTISRDNAKNTVDLQMNSLKPEDTAVYYCAADPLNSDSAGTYDYWGQGTLVTVSS
B24: 01E09R3LS His-tagged VHH (VHH)
VHH: EVQLVESGGGLVQAGGSLRLSCAASGRTINTYVMGWFRQAPGKEREFVARIDWSGSSTDYADSVKGRFTTSRDNAKNTVYLQMNGLKPEDTAVYYCAGSAYYSGYVTHRDFGSWGQGTLVTVSS
B25: 01F11R2 His-tagged VHH (VHH)
VHH: B24 VHH with I29L, S57T, T70I, G85S, L119Q
B26: 01F03R3LS His-tagged VHH (VHH)
VHH: B24 VHH with T31G, K43E, T70I, N77I, G85S
B27: 01H11R3LS His-tagged VHH (VHH)
VHH: B24 VHH with E1Q, T31G, T70I, N77T, M83T, G85S, L119Q
B28: 01G09R2 His-tagged VHH (VHH)
VHH: B24 VHH with V64A, T70I, G85S
B29: 01G10R3LS His-tagged VHH (VHH)
VHH: B24 VHH with M34T, T70I, G85S, L119Q
B30: 01B12R2 His-tagged VHH (VHH)
VHH: EVQLVESGGGLVQAGGSLRLSCAASGRTFSSGIMGWFRQAPGKEREFVAAIEWSGGNTYKYYAESVKGRFAISRDNAKTTAYLQMGSLNPEDTALYYCAADESPSRYIDLRRPAPYHYWGQGTLVTVSS
B31: 01A07R3 His-tagged VHH (VHH)
VHH: EVQLVESGGGLVQTGESLRLSCAASGRAFSDLRMAWFRQVPGKEREFVAAVEWRGSSRYYYSADSVKGRFTISRTSPKGETYLQMNGLKPEDTAVYYCAAVSPVVGDPRNSDTYNYWGQGTQVTVSS
B32: 01C11R2 His-tagged VHH (VHH)
VHH: EVQLVESGGGLVQTGGSLRLSCAASGRTFSTYRMGWFRQAPGKEREFVAAISWSTGSTYYADSVKGRFAISRDNAKNTIYLQMNSLKPEDTAVYYCAAGMVATTRSSAYPYWGQGTQVTVSS
B33: 01E03R3 His-tagged VHH (VHH)
VHH: QVQLVESGGGLVQTGGSLRLSCAASGRTFSVYRVGWFRQAPGKEREFVAAVIWSGASTYKYAADSVKGRFTISRDNAENTVYLQMNSLKPEDTAVYYCAADPLGLPGPDVRVEGGYRHWGQGTLVTVSS

Where a chain is given by its changes, count along the chain named.

In the test the target is T1, recombinant human pIgR (hpIgR) (human, UniProt P01833 19-638, limits assumed).
T1 construct: probably the ECD
T1 sequence (P01833 19-638 limits assumed): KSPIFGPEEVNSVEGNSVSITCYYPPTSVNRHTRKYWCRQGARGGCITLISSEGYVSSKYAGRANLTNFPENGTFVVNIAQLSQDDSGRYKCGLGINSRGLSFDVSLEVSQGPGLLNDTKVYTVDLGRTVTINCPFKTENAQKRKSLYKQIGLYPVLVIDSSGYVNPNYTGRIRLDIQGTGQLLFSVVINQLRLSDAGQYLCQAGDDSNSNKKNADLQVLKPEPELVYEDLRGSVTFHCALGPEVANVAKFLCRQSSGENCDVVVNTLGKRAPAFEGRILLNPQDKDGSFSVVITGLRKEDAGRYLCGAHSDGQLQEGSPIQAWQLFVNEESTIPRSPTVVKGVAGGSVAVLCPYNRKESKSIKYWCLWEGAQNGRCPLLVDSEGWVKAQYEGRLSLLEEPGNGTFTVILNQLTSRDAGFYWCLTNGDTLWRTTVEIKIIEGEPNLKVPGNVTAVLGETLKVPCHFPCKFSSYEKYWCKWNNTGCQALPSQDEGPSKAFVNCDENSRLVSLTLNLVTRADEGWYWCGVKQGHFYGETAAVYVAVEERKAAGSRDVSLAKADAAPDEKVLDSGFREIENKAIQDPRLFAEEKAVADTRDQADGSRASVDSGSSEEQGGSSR
Nature of the test: ELISA, periplasmic VHH, BSA subtracted. Here is the method:
Initial Library Screening: After each panning round showing enrichment, 94 individual clones were expressed and tested in an off-phage initial screen for specific binding to mpIgR or hpIgR (respectively depending on the antigen used). Screening of monoclones in an off-phage format was performed by transforming the phagemid pool into a non-amber-suppressor strain of E. coli and picking random colonies. The VHH proteins were recovered in the periplasmic fraction by performing osmotic shock. Periplasmic fractions containing His-tagged nanobodies were tested for binding to hpIgR or mpIgR. Bound nanobody was detected with a polyclonal anti-alpaca VHH domain antibody. Each clone was also tested for non-specific binding to BSA in parallel. The ELISA values obtained on BSA were subtracted from the ELISA values obtained on the respective pIgR antigen.
Repeat Testing of Positive Hits: The hits identified in the initial screen of the phage pools were re-tested for binding to either hpIgR or mpIgR. Periplasmic fractions were prepared again by performing osmotic shock. Periplasmic fractions containing His-tagged nanobodies were tested for binding to mpIgR. In this assay, bound nanobody was detected with an anti-VHH antibody. Each clone was also tested for non-specific binding to BSA in parallel. The ELISA values obtained on BSA were subtracted from the ELISA values obtained on the respective pIgR antigen.
For orientation: In an ELISA, binding on a coated surface is turned into a signal by an enzyme label.
Regarding B1, the “ELISA (OD)” value was determined as 1.8 OD.
Consider B2, for which the “ELISA (OD)” value was determined as 2.1 OD.
As for B3, the “ELISA (OD)” value worked out at 2.13 OD.
Next, B4: 1.69 OD; B5: 0.55 OD; B6: 1.95 OD.
For the molecule B7, the “ELISA (OD)” value was 1.35 OD.
As for B8, the “ELISA (OD)” value stood at 0.73 OD.
B9: the “ELISA (OD)” value was 2.13 OD.
Take B10: the “ELISA (OD)” value came out at 2.2 OD.
With B11, the “ELISA (OD)” value is 2.18 OD.
Next, B12: 2.11 OD; B13: 1.54 OD; B14: 2.06 OD.
B15: the “ELISA (OD)” value is 1.85 OD.
With B16, the “ELISA (OD)” value worked out at 0.56 OD.
Consider B17, for which the “ELISA (OD)” value turned out to be 2.14 OD.
Take B18: the “ELISA (OD)” value turned out to be 2.26 OD.
The same measure for B19: 2.45 OD.
B20: the “ELISA (OD)” value was 2.09 OD.
On to B21, for which the “ELISA (OD)” value was determined as 2.37 OD.
With B22, the “ELISA (OD)” value stood at 2.15 OD.
Consider B23, for which the “ELISA (OD)” value was determined as 1.96 OD.
Take B24: the “ELISA (OD)” value was determined as 1.97 OD.
Consider B25, for which the “ELISA (OD)” value worked out at 0.62 OD.
The same measure for B26: 2.35 OD; for B27: 0.99 OD; for B28: 2 OD.
For B29, the “ELISA (OD)” value amounted to 1.96 OD.
Take B30: the “ELISA (OD)” value is 1.78 OD.
Turning to B31, the “ELISA (OD)” value amounted to 1.68 OD.
With B32, the “ELISA (OD)” value worked out at 1.3 OD.
Take B33: the “ELISA (OD)” value was 1.07 OD.
